Laboratory results: publication PMC7865074, “Role of PDZ-binding motif from West Nile virus NS5 protein on viral replication” (Scientific Reports, 2021)
Ends that are not written are not given here.

T1: biotinylated WNV NS5 PBM peptide (West Nile virus, also: biotinyl group, end not given here)
T1 construct: bait of the holdup assay; also called 13-mer peptide; source: synthetic peptide (solid phase, Fmoc; Proteogenix)
T1 peptide: RYEDTTLVEDTVL

B1: PDZ domain-containing protein 4, PDZ domain (holdup construct) (domain or fragment, human, UniProt Q76G19 130-214, looked up)
chain: EVELYKSSHRDKLGLMVCYRTDDEEDLGIYVGEVNPNSIAAKDGRIREGDRIIQINGVDVQNREEAVAILSQEENTNISLLVARP
notes: also called PDZD4; source: E. coli, PDZome V.2 library, high-throughput expression
B2: Synaptojanin-2-binding protein, PDZ domain (holdup construct) (domain or fragment, human, UniProt P57105 13-100, looked up)
chain: EINLTRGPSGLGFNIVGGTDQQYVSNDSGIYVSRIKENGAAALDGRLQEGDKILSVNGQDLKNLLHQDAVDLFRNAGYAVSLRVQHRL
notes: also called SYNJ2BP; source: E. coli, PDZome V.2 library, high-throughput expression
B3: 26S proteasome non-ATPase regulatory subunit 9, PDZ domain (holdup construct) (domain or fragment, human, UniProt O00233 108-195, looked up)
chain: QARDMAEAHKEAMSRKLGQSESQGPPRAFAKVNSISPGSPASIAGLQVDDEIVEFGSVNTQNFQSLHNIGSVVQHSEGKPLNVTVIRR
notes: also called PSMD9; source: E. coli, PDZome V.2 library, high-throughput expression
B4: Membrane-associated guanylate kinase, WW and PDZ domain-containing protein 3, PDZ domain 2 (holdup construct) (domain or fragment, human, UniProt Q5TCQ9 410-492, looked up)
chain: RASLKKSTMGFGFTIIGGDRPDEFLQVKNVLKDGPAAQDGKIAPGDVIVDINGNCVLGHTHADVVQMFQLVPVNQYVNLTLCR
notes: also called MAGI3 _2; source: E. coli, PDZome V.2 library, high-throughput expression
B5: Na(+)/H(+) exchange regulatory cofactor NHE-RF1, PDZ domain 1 (holdup construct) (domain or fragment, human, UniProt O14745 14-94, looked up)
chain: LCCLEKGPNGYGFHLHGEKGKLGQYIRLVEPGSPAEKAGLLAGDRLVEVNGENVEKETHQQVVSRIRAALNAVRLLVVDPE
notes: source: E. coli, PDZome V.2 library, high-throughput expression
B6: SH3 and multiple ankyrin repeat domains protein 2, PDZ domain (holdup construct) (domain or fragment, human, UniProt Q9UPX8 626-720, looked up)
chain: TVVLQKKDNEGFGFVLRGAKADTPIEEFTPTPAFPALQYLESVDEGGVAWQAGLRTGDFLIEVNNENVVKVGHRQVVNMIRQGGNHLVLKVVTVT
notes: also called SHANK2; source: E. coli, PDZome V.2 library, high-throughput expression
B7: PDZ domain-containing protein 7, PDZ domain 3 (holdup construct) (domain or fragment, human, UniProt Q9H5P4 862-934, looked up)
chain: TVTLSKMKQSLGISISGGIESKVQPMVKIEKIFPGGAAFLSGALQAGFELVAVDGENLEQVTHQRAVDTIRRA
notes: also called PDZD7_3; source: E. coli, PDZome V.2 library, high-throughput expression
B8: SH3 and multiple ankyrin repeat domains protein 1, PDZ domain (holdup construct) (domain or fragment, human, UniProt Q9Y566 663-757, looked up)
chain: TVLLQKKDSEGFGFVLRGAKAQTPIEEFTPTPAFPALQYLESVDEGGVAWRAGLRMGDFLIEVNGQNVVKVGHRQVVNMIRQGGNTLMVKVVMVT
notes: also called SHANK1; source: E. coli, PDZome V.2 library, high-throughput expression
B9: PDZ and LIM domain protein 1, PDZ domain (holdup construct) (domain or fragment, human, UniProt O00151 3-85, looked up)
chain: TQQIDLQGPGPWGFRLVGGKDFEQPLAISRVTPGSKAALANLCIGDVITAIDGENTSNMTHLEAQNRIKGCTDNLTLTVARSE
notes: also called PDLIM1; source: E. coli, PDZome V.2 library, high-throughput expression
B10: PDZ domain-containing RING finger protein 3, PDZ domain 1 (holdup construct) (domain or fragment, human, UniProt Q9UPQ7 249-339, looked up)
chain: TLVLHRDSGSLGFNIIGGRPSVDNHDGSSSEGIFVSKIVDSGPAAKEGGLQIHDRIIEVNGRDLSRATHDQAVEAFKTAKEPIVVQVLRRT
notes: also called PDZRN3_1; source: E. coli, PDZome V.2 library, high-throughput expression
B11: Na(+)/H(+) exchange regulatory cofactor NHE-RF2, PDZ domain 2 (holdup construct) (domain or fragment, human, UniProt Q15599 150-230, looked up)
chain: RLCHLRKGPQGYGFNLHSDKSRPGQYIRSVDPGSPAARSGLRAQDRLIEVNGQNVEGLRHAEVVASIKAREDEARLLVVDP
notes: also called NHERF2_2; source: E. coli, PDZome V.2 library, high-throughput expression
B12: Partitioning defective 3 homolog B, PDZ domain 1 (holdup construct) (domain or fragment, human, UniProt Q8TEW8 201-289, looked up)
chain: TRTVEISGEGGPLGIHVVPFFSSLSGRILGLFIRGIEDNSRSKREGLFHENECIVKINNVDLVDKTFAQAQDVFRQAMKSPSVLLHVLP
notes: also called PARD3B_1; source: E. coli, PDZome V.2 library, high-throughput expression
B13: T-lymphoma invasion and metastasis-inducing protein 2, PDZ domain (holdup construct) (domain or fragment, human, UniProt Q8IVF5 890-976, looked up)
chain: DVQLTKTGSVCDFGFAVTAQVDERQHLSRIFISDVLPDGLAYGEGLRKGNEIMTLNGEAVSDLDLKQMEALFSEKSVGLTLIARPPD
notes: also called TIAM2; source: E. coli, PDZome V.2 library, high-throughput expression
B14: Microtubule-associated serine/threonine-protein kinase 1, PDZ domain (holdup construct) (domain or fragment, human, UniProt Q9Y2H9 967-1055, looked up)
chain: PITIQRSGKKYGFTLRAIRVYMGDTDVYSVHHIVWHVEEGGPAQEAGLCAGDLITHVNGEPVHGMVHPEVVELILKSGNKVAVTTTPFE
notes: also called MAST1; source: E. coli, PDZome V.2 library, high-throughput expression
B15: Beta-1-syntrophin, PDZ domain (holdup construct) (domain or fragment, human, UniProt Q13884 112-195, looked up)
chain: GVKVLKQELGGLGISIKGGKENKMPILISKIFKGLAADQTQALYVGDAILSVNGADLRDATHDEAVQALKRAGKEVLLEVKYMR
notes: also called SNTB1; source: E. coli, PDZome V.2 library, high-throughput expression
B16: Membrane-associated guanylate kinase, WW and PDZ domain-containing protein 2, PDZ domain 2 (holdup construct) (domain or fragment, human, UniProt Q86UL8 426-510, looked up)
chain: STTLKKSNMGFGFTIIGGDEPDEFLQVKSVIPDGPAAQDGKMETGDVIVYINEVCVLGHTHADVVKLFQSVPIGQSVNLVLCRGY
notes: also called MAGI2_2; source: E. coli, PDZome V.2 library, high-throughput expression
B17: MAGUK p55 subfamily member 5, PDZ domain (holdup construct) (domain or fragment, human, UniProt Q8N3R9 256-336, looked up)
chain: IVRIEKARDIPLGATVRNEMDSVIISRIVKGGAAEKSGLLHEGDEVLEINGIEIRGKDVNEVFDLLSDMHGTLTFVLIPSQ
notes: also called MPP5; source: E. coli, PDZome V.2 library, high-throughput expression

Target: T1, biotinylated WNV NS5 PBM peptide
Assay: holdup assay (automated high-throughput chromatography); biotinylated NS5 PBM peptide as bait against 259 human PDZ domains expressed in E. coli; read-out binding intensity (BI), mean of replicates; BI threshold 0.2 for a significant interaction

| Binder | BI (holdup binding intensity) |
| --- | --- |
| B1 | < 0.15 |
| B2 | 0.21 |
| B3 | < 0.15 |
| B4 | 0.61 |
| B5 | 0.68 |
| B6 | 0.39 |
| B7 | 0.27 |
| B8 | 0.39 |
| B9 | < 0.15 |
| B10 | 0.35 |
| B11 | 0.74 |
| B12 | 0.48 |
| B13 | < 0.15 |
| B14 | 0.52 |
| B15 | 0.22 |
| B16 | 0.38 |
| B17 | < 0.15 |
